38 molecules from publication PMC314469, “Protein Interaction Networks by Proteome Peptide Scanning” (PLoS Biology, 2004) can be followed below.

In experiment [1] the target is T1, amphyphisin SH3 (AMPH_HUMAN), P49418.
T1 chain: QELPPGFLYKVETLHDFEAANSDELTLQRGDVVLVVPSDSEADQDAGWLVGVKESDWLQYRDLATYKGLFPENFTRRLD
The experiment is described as follows: SPOT array.

Experiment [2] deals with endophilin SH3 (SH3G2_HUMAN), Q99962. The experiment can be described thus: SPOT array.

Take LIRTFQRPDRVELM [Q9UMF0 113-126]: the normalised SPOT signal, Boehringer light units (BLU); mean over the file's lines of this peptide in experiment [1] was 6100; in experiment [2] it was 224.

With LEYVLFRPNRRYNQ [Q15018 147-160], the normalised SPOT signal, Boehringer light units (BLU); mean over the file's lines of this peptide turned out to be 451 in experiment [1] and 54.6 in experiment [2].

For LGPVPVRPPPGPEL [Q9Y5L9 821-835], the normalised SPOT signal, Boehringer light units (BLU); mean over the file's lines of this peptide came out at 33.4 in experiment [1] and 81.8 in experiment [2].

As to LFFELRRPPQHGVL [Q9H6N9 50-63], the normalised SPOT signal, Boehringer light units (BLU); mean over the file's lines of this peptide in experiment [1] was found to be 12.7; in experiment [2], 168.

For the molecule LIRFLPRPIRQQLL [Q12789 943-956], the normalised SPOT signal, Boehringer light units (BLU); mean over the file's lines of this peptide in experiment [1] was determined as 1740; in experiment [2], 3730.

Turning to LKEILKRPVDPIRA [O43630 494-507], the values for the normalised SPOT signal, Boehringer light units (BLU); mean over the file's lines of this peptide in experiment [1] and in experiment [2] were 5.8 and 55.3, respectively.

On to LFPPLFRPQRPHSA [Q9ULW2 164-177], for which the normalised SPOT signal, Boehringer light units (BLU); mean over the file's lines of this peptide in experiment [1] came out at 5720; in experiment [2], 10200.

As for LKGIFTRPSKLTRK [P30622 114-127], the normalised SPOT signal, Boehringer light units (BLU); mean over the file's lines of this peptide was found to be 121 in experiment [1] and 192 in experiment [2].

Turning to LGDSLRRPQLRLWS [P41440 258-271], the normalised SPOT signal, Boehringer light units (BLU); mean over the file's lines of this peptide in experiment [1] was 14.9; in experiment [2], 6.

Regarding LGRLPSRPPLPGSG [Q9Y570 9-23], the values for the normalised SPOT signal, Boehringer light units (BLU); mean over the file's lines of this peptide in experiment [1] and in experiment [2] were 269 and 14800, respectively.

Take LGKVIRRPPLTEKL [Q9NRD6 13-26]: the normalised SPOT signal, Boehringer light units (BLU); mean over the file's lines of this peptide in experiment [1] was determined as 4.7; in experiment [2] it was 277.

As for LIQELRRPKYSIYF [Q15715 82-95], the normalised SPOT signal, Boehringer light units (BLU); mean over the file's lines of this peptide in experiment [1] was 46.5; in experiment [2], 169.

Take LGQKPQRPRRPASP [P07360 19-32]: the normalised SPOT signal, Boehringer light units (BLU); mean over the file's lines of this peptide is 16800 in experiment [1] and 34600 in experiment [2].

In the case of LETSLKRPKRPLFN [Q96RW7 67-80], the normalised SPOT signal, Boehringer light units (BLU); mean over the file's lines of this peptide in experiment [1] was 1410; in experiment [2], 93.1.

For the molecule LGKIPLKPPPLELL [O15504 407-421], the normalised SPOT signal, Boehringer light units (BLU); mean over the file's lines of this peptide worked out at 72.5 in experiment [1] and 61.2 in experiment [2].

For the molecule LGHPPAKPPLPPGP [Q96QH2 497-511], the normalised SPOT signal, Boehringer light units (BLU); mean over the file's lines of this peptide stood at 64.4 in experiment [1] and 264 in experiment [2].

Consider APLLPPRPPPLPPV [Q9NR05 56-70], for which the figures for the normalised SPOT signal, Boehringer light units (BLU); mean over the file's lines of this peptide in experiment [1] and in experiment [2] were 1400 and 4020, respectively.

As to LILPPPRPPLAVTS [O60241 813-827], the results for the normalised SPOT signal, Boehringer light units (BLU); mean over the file's lines of this peptide in experiment [1] and in experiment [2] were 1060 and 3500, respectively.

For the molecule LFNLIKRPDDEQRQ [Q9P260 301-314], the normalised SPOT signal, Boehringer light units (BLU); mean over the file's lines of this peptide in experiment [1] is 16.2; in experiment [2], 34.

For the molecule LHLVIRRPLETHPG [Q9H6Y5 142-155], the figures for the normalised SPOT signal, Boehringer light units (BLU); mean over the file's lines of this peptide in experiment [1] and in experiment [2] were 49.4 and 596, respectively.

As for LKAPPARPVKGAYR [Q99760 384-397], the normalised SPOT signal, Boehringer light units (BLU); mean over the file's lines of this peptide in experiment [1] amounted to 238; in experiment [2] it was 3650.

For the molecule LHGRPYRPPSPPPP [O75593 148-162], the normalised SPOT signal, Boehringer light units (BLU); mean over the file's lines of this peptide in experiment [1] stood at 218; in experiment [2], 246.

In the case of LGLPPGKPPSSSPL [Q9H7S9 349-363], the normalised SPOT signal, Boehringer light units (BLU); mean over the file's lines of this peptide in experiment [1] worked out at 23.4; in experiment [2], 45.5.

For the molecule LHVQLNRPNKRNAM [Q13011 68-81], the normalised SPOT signal, Boehringer light units (BLU); mean over the file's lines of this peptide in experiment [1] came to 193; in experiment [2], 128.

Consider APPLPVRPPKTSPG [Q96FN5 451-465], for which the normalised SPOT signal, Boehringer light units (BLU); mean over the file's lines of this peptide in experiment [1] amounted to 4490; in experiment [2], 2280.

For the molecule LGPVPHRPPFEPGS [P54259 848-862], the normalised SPOT signal, Boehringer light units (BLU); mean over the file's lines of this peptide in experiment [1] turned out to be 65.2; in experiment [2], 41.8.

For LGLLFRRPEALQVG [Q13290 172-185], the normalised SPOT signal, Boehringer light units (BLU); mean over the file's lines of this peptide in experiment [1] was found to be 12.2; in experiment [2], 61.1.

For LGLSFRRPNVITLL [Q9ULA1 146-159], the values for the normalised SPOT signal, Boehringer light units (BLU); mean over the file's lines of this peptide in experiment [1] and in experiment [2] were 38.4 and 300, respectively.

With LGASPAKPPSPGAP [Q8WXD9 1320-1334], the normalised SPOT signal, Boehringer light units (BLU); mean over the file's lines of this peptide in experiment [1] was found to be 62; in experiment [2] it was 102.

With LGLRLSRPYRLAAG [O14927 499-512], the figures for the normalised SPOT signal, Boehringer light units (BLU); mean over the file's lines of this peptide in experiment [1] and in experiment [2] were 1650 and 315, respectively.

With LKVQLKRPKDANRP [Q9NR84 149-162], the normalised SPOT signal, Boehringer light units (BLU); mean over the file's lines of this peptide was 28.8 in experiment [1] and 69 in experiment [2].

Consider LFQPPRRPGLGTVG [Q9HCK5 75-88], for which the normalised SPOT signal, Boehringer light units (BLU); mean over the file's lines of this peptide in experiment [1] was 1500; in experiment [2], 1840.

On to LHESFPRPKRVSKD [P42568 55-68], for which the results for the normalised SPOT signal, Boehringer light units (BLU); mean over the file's lines of this peptide in experiment [1] and in experiment [2] were 3510 and 391, respectively.

As to LGLELGRPVRFLYE [P13942 112-125], the normalised SPOT signal, Boehringer light units (BLU); mean over the file's lines of this peptide in experiment [1] is 218; in experiment [2], 245.

For the molecule LGGSPRRPSGRKGS [Q92729 834-847], the normalised SPOT signal, Boehringer light units (BLU); mean over the file's lines of this peptide in experiment [1] worked out at 34.3; in experiment [2], 122.

With LFIIPPKPPGRPQG [P81489 12-26], the normalised SPOT signal, Boehringer light units (BLU); mean over the file's lines of this peptide in experiment [1] was determined as 459; in experiment [2], 538.

On to LGEVPRRPASRGVP [Q969P6 16-29], for which the normalised SPOT signal, Boehringer light units (BLU); mean over the file's lines of this peptide came to 22.2 in experiment [1] and 1050 in experiment [2].

As for APPELRRPSHLHTS [Q8WU02 149-162], the normalised SPOT signal, Boehringer light units (BLU); mean over the file's lines of this peptide is 33.1 in experiment [1] and 145 in experiment [2].
